Laboratory results taken from US7070973B2, “Butyrylcholinesterase variants and methods of use” (priority 2000, dated 2006).

Test: Spectrophotometric (240 nm) cocaine binding and hydrolysis assay with purified butyrylcholinesterase variants
Format: biochemical
Conditions: for Km / kcat (hydrolysis rate): (−)-cocaine; for Km: 0.1M potassium phosphate pH 7.0 at 30° C.; for kcat (hydrolysis rate): active sites titrated with chlorpyrifos oxon; for Cocaine Binding or Cocaine Hydrolysis (result in words): Table 4
Procedure: […]. Pharmacol. 41:1249–1254 (1991). Km values were determined in 0.1M potassium phosphate pH 7.0 at 30° C. for (−)-cocaine. Vmax values and Km values were calculated using Sigma Plot for Macintosh (Jandel Scientific, San Rafael, Calif.).
Once Vmax values and Km values were calculated, the number of active sites in each butyrylcholinesterase preparation was determined. The titration of active sites was performed with chlorpyrifos oxon (MET-674B, Chem Service, West Chester, Pa.), an inhibitor of butyrylcholinesterase. One molecule of chlorpyrifos oxon binds and inhibits one molecule of butyrylcholinesterase, which allows for calculation of the number of active sites. Based on the number of active sites, the kcat value for each variant was calculated (Table 3). […].

B1: A328W (protein)
chain: MDSKVTIICIRFLFWFLLLCMLIGKSHTEDDIIIATKNGKVRGMNLTVFGGTVTAFLGIPYAQPPLGRLRFKKPQSLTKWSDIWNATKYANSCCQNIDQSFPGFHGSEMWNPNTDLSEDCLYLNVWIPAPKPKNATVLIWIYGGGFQTGTSSLHVYDGKFLARVERVIVVSMNYRVGALGFLALPGNPEAPGNMGLFDQQLALQWVQKNIAAFGGNPKSVTLFGESAGAASVSLHLLSPGSHSLFTRAILQSGSFNAPWAVTSLYEARNRTLNLAKLTGCSRENETEIIKCLRNKDPQEILLNEAFVVPYGTPLSVNFGPTVDGDFLTDMPDILLELGQFKKTQILVGVNKDEGTWFLVYGAPGFSKDNNSIITRKEFQEGLKIFFPGVSEFGKESILFHYTDWVDDQRPENYREALGDVVGDYNFICPALEFTKKFSEWGNNAFFYYFEHRSSKLPWPEWMGVMHGYEIEFVFGLPLERRDNYTKAEEILSRSIVKRWANFAKYGNPNETQNNSTSWPVFKSTEQKYLTLNTESTRIMTKLRAQQCRFWTSFFPKVLEMTGNIDEAEWEWKAGFHRWNNYMMDWKNQFNDYTSKKESCVGL
modifications: Human Butyrylcholinesterase variant
Question: Which results are given for B1?
Answer: Km: 10 µM; kcat (hydrolysis rate): 0.62 s⁻¹

B2: Q119Y (protein, UniProt P06276 29-602, looked up, variant Q119Y)
Cholinesterase: EDDIIIATKNGKVRGMNLTVFGGTVTAFLGIPYAQPPLGRLRFKKPQSLTKWSDIWNATKYANSCCQNIDQSFPGFHGSEMWNPNTDLSEDCLYLNVWIPAPKPKNATVLIWIYGGGFYTGTSSLHVYDGKFLARVERVIVVSMNYRVGALGFLALPGNPEAPGNMGLFDQQLALQWVQKNIAAFGGNPKSVTLFGESAGAASVSLHLLSPGSHSLFTRAILQSGSFNAPWAVTSLYEARNRTLNLAKLTGCSRENETEIIKCLRNKDPQEILLNEAFVVPYGTPLSVNFGPTVDGDFLTDMPDILLELGQFKKTQILVGVNKDEGTAFLVYGAPGFSKDNNSIITRKEFQEGLKIFFPGVSEFGKESILFHYTDWVDDQRPENYREALGDVVGDYNFICPALEFTKKFSEWGNNAFFYYFEHRSSKLPWPEWMGVMHGYEIEFVFGLPLERRDNYTKAEEILSRSIVKRWANFAKYGNPNETQNNSTSWPVFKSTEQKYLTLNTESTRIMTKLRAQQCRFWTSFFPKVLEMTGNIDEAEWEWKAGFHRWNNYMMDWKNQFNDYTSKKESCVGL
Question: For B2, which Km is on record?
Answer: Its Km is 56 µM.

Question: What about the “kcat (hydrolysis rate)” value of the same molecule?
Answer: The value was 0.0333 s⁻¹.

Question: What about the “Cocaine Binding or Cocaine Hydrolysis (result in words)” value (“Cocaine Binding or Cocaine Hydrolysis” for short) of the same molecule?
Answer: Its value is “not a cocaine hydrolase”.

B3: T120F (protein, UniProt P06276 29-602, looked up, variant T120F)
Cholinesterase: EDDIIIATKNGKVRGMNLTVFGGTVTAFLGIPYAQPPLGRLRFKKPQSLTKWSDIWNATKYANSCCQNIDQSFPGFHGSEMWNPNTDLSEDCLYLNVWIPAPKPKNATVLIWIYGGGFQFGTSSLHVYDGKFLARVERVIVVSMNYRVGALGFLALPGNPEAPGNMGLFDQQLALQWVQKNIAAFGGNPKSVTLFGESAGAASVSLHLLSPGSHSLFTRAILQSGSFNAPWAVTSLYEARNRTLNLAKLTGCSRENETEIIKCLRNKDPQEILLNEAFVVPYGTPLSVNFGPTVDGDFLTDMPDILLELGQFKKTQILVGVNKDEGTAFLVYGAPGFSKDNNSIITRKEFQEGLKIFFPGVSEFGKESILFHYTDWVDDQRPENYREALGDVVGDYNFICPALEFTKKFSEWGNNAFFYYFEHRSSKLPWPEWMGVMHGYEIEFVFGLPLERRDNYTKAEEILSRSIVKRWANFAKYGNPNETQNNSTSWPVFKSTEQKYLTLNTESTRIMTKLRAQQCRFWTSFFPKVLEMTGNIDEAEWEWKAGFHRWNNYMMDWKNQFNDYTSKKESCVGL
Question: With B3 as the molecule, how does the Km read?
Answer: The Km was 97 µM.

Question: What about the “Cocaine Binding or Cocaine Hydrolysis” value of the same molecule?
Answer: Its value is “not a cocaine hydrolase”.

B4: V288F (protein, UniProt P06276 29-602, looked up, variant V288F)
Cholinesterase: EDDIIIATKNGKVRGMNLTVFGGTVTAFLGIPYAQPPLGRLRFKKPQSLTKWSDIWNATKYANSCCQNIDQSFPGFHGSEMWNPNTDLSEDCLYLNVWIPAPKPKNATVLIWIYGGGFQTGTSSLHVYDGKFLARVERVIVVSMNYRVGALGFLALPGNPEAPGNMGLFDQQLALQWVQKNIAAFGGNPKSVTLFGESAGAASVSLHLLSPGSHSLFTRAILQSGSFNAPWAVTSLYEARNRTLNLAKLTGCSRENETEIIKCLRNKDPQEILLNEAFVVPYGTPLSFNFGPTVDGDFLTDMPDILLELGQFKKTQILVGVNKDEGTAFLVYGAPGFSKDNNSIITRKEFQEGLKIFFPGVSEFGKESILFHYTDWVDDQRPENYREALGDVVGDYNFICPALEFTKKFSEWGNNAFFYYFEHRSSKLPWPEWMGVMHGYEIEFVFGLPLERRDNYTKAEEILSRSIVKRWANFAKYGNPNETQNNSTSWPVFKSTEQKYLTLNTESTRIMTKLRAQQCRFWTSFFPKVLEMTGNIDEAEWEWKAGFHRWNNYMMDWKNQFNDYTSKKESCVGL
Question: Which results are given for B4?
Answer: Km: 17 µM; kcat (hydrolysis rate): 0.0167 s⁻¹; Cocaine Binding or Cocaine Hydrolysis (result in words): Not a cocaine hydrolase

B5: Y332A (protein, UniProt P06276 29-602, looked up, variant Y332A)
Cholinesterase: EDDIIIATKNGKVRGMNLTVFGGTVTAFLGIPYAQPPLGRLRFKKPQSLTKWSDIWNATKYANSCCQNIDQSFPGFHGSEMWNPNTDLSEDCLYLNVWIPAPKPKNATVLIWIYGGGFQTGTSSLHVYDGKFLARVERVIVVSMNYRVGALGFLALPGNPEAPGNMGLFDQQLALQWVQKNIAAFGGNPKSVTLFGESAGAASVSLHLLSPGSHSLFTRAILQSGSFNAPWAVTSLYEARNRTLNLAKLTGCSRENETEIIKCLRNKDPQEILLNEAFVVPYGTPLSVNFGPTVDGDFLTDMPDILLELGQFKKTQILVGVNKDEGTAFLVAGAPGFSKDNNSIITRKEFQEGLKIFFPGVSEFGKESILFHYTDWVDDQRPENYREALGDVVGDYNFICPALEFTKKFSEWGNNAFFYYFEHRSSKLPWPEWMGVMHGYEIEFVFGLPLERRDNYTKAEEILSRSIVKRWANFAKYGNPNETQNNSTSWPVFKSTEQKYLTLNTESTRIMTKLRAQQCRFWTSFFPKVLEMTGNIDEAEWEWKAGFHRWNNYMMDWKNQFNDYTSKKESCVGL
Question: For B5, which Km is on record?
Answer: The Km was 240 µM.

B6: A328F (protein, UniProt P06276 29-602, looked up, variant A328F)
Cholinesterase: EDDIIIATKNGKVRGMNLTVFGGTVTAFLGIPYAQPPLGRLRFKKPQSLTKWSDIWNATKYANSCCQNIDQSFPGFHGSEMWNPNTDLSEDCLYLNVWIPAPKPKNATVLIWIYGGGFQTGTSSLHVYDGKFLARVERVIVVSMNYRVGALGFLALPGNPEAPGNMGLFDQQLALQWVQKNIAAFGGNPKSVTLFGESAGAASVSLHLLSPGSHSLFTRAILQSGSFNAPWAVTSLYEARNRTLNLAKLTGCSRENETEIIKCLRNKDPQEILLNEAFVVPYGTPLSVNFGPTVDGDFLTDMPDILLELGQFKKTQILVGVNKDEGTFFLVYGAPGFSKDNNSIITRKEFQEGLKIFFPGVSEFGKESILFHYTDWVDDQRPENYREALGDVVGDYNFICPALEFTKKFSEWGNNAFFYYFEHRSSKLPWPEWMGVMHGYEIEFVFGLPLERRDNYTKAEEILSRSIVKRWANFAKYGNPNETQNNSTSWPVFKSTEQKYLTLNTESTRIMTKLRAQQCRFWTSFFPKVLEMTGNIDEAEWEWKAGFHRWNNYMMDWKNQFNDYTSKKESCVGL
Question: Which Km does the source give for B6 here?
Answer: The Km was 24 µM.

Question: And the “kcat (hydrolysis rate)” value?
Answer: The value was 0.0967 s⁻¹.

Question: And the “Cocaine Binding or Cocaine Hydrolysis” value?
Answer: Its value is “Not a cocaine hydrolase”.

B7: Q119Y/V288F/A328Y (protein, UniProt P06276 29-602, looked up, variant Q119Y V288F A328Y)
Cholinesterase: EDDIIIATKNGKVRGMNLTVFGGTVTAFLGIPYAQPPLGRLRFKKPQSLTKWSDIWNATKYANSCCQNIDQSFPGFHGSEMWNPNTDLSEDCLYLNVWIPAPKPKNATVLIWIYGGGFYTGTSSLHVYDGKFLARVERVIVVSMNYRVGALGFLALPGNPEAPGNMGLFDQQLALQWVQKNIAAFGGNPKSVTLFGESAGAASVSLHLLSPGSHSLFTRAILQSGSFNAPWAVTSLYEARNRTLNLAKLTGCSRENETEIIKCLRNKDPQEILLNEAFVVPYGTPLSFNFGPTVDGDFLTDMPDILLELGQFKKTQILVGVNKDEGTYFLVYGAPGFSKDNNSIITRKEFQEGLKIFFPGVSEFGKESILFHYTDWVDDQRPENYREALGDVVGDYNFICPALEFTKKFSEWGNNAFFYYFEHRSSKLPWPEWMGVMHGYEIEFVFGLPLERRDNYTKAEEILSRSIVKRWANFAKYGNPNETQNNSTSWPVFKSTEQKYLTLNTESTRIMTKLRAQQCRFWTSFFPKVLEMTGNIDEAEWEWKAGFHRWNNYMMDWKNQFNDYTSKKESCVGL
Question: With B7 as the molecule, how does the Km read?
Answer: The Km was 33 µM.

Question: And the “kcat (hydrolysis rate)” value?
Answer: Its value is 0.0383 s⁻¹.

Question: And the “Cocaine Binding or Cocaine Hydrolysis” value?
Answer: Its value is “Not a cocaine hydrolase”.

B8: A328I (protein, UniProt P06276 29-602, looked up, variant A328I)
Cholinesterase: EDDIIIATKNGKVRGMNLTVFGGTVTAFLGIPYAQPPLGRLRFKKPQSLTKWSDIWNATKYANSCCQNIDQSFPGFHGSEMWNPNTDLSEDCLYLNVWIPAPKPKNATVLIWIYGGGFQTGTSSLHVYDGKFLARVERVIVVSMNYRVGALGFLALPGNPEAPGNMGLFDQQLALQWVQKNIAAFGGNPKSVTLFGESAGAASVSLHLLSPGSHSLFTRAILQSGSFNAPWAVTSLYEARNRTLNLAKLTGCSRENETEIIKCLRNKDPQEILLNEAFVVPYGTPLSVNFGPTVDGDFLTDMPDILLELGQFKKTQILVGVNKDEGTIFLVYGAPGFSKDNNSIITRKEFQEGLKIFFPGVSEFGKESILFHYTDWVDDQRPENYREALGDVVGDYNFICPALEFTKKFSEWGNNAFFYYFEHRSSKLPWPEWMGVMHGYEIEFVFGLPLERRDNYTKAEEILSRSIVKRWANFAKYGNPNETQNNSTSWPVFKSTEQKYLTLNTESTRIMTKLRAQQCRFWTSFFPKVLEMTGNIDEAEWEWKAGFHRWNNYMMDWKNQFNDYTSKKESCVGL
Question: With B8 as the molecule, how does the Km read?
Answer: The Km was 11 µM.

Question: And the “kcat (hydrolysis rate)” value?
Answer: The value was 0.0083 s⁻¹.

Question: What about the “Cocaine Binding or Cocaine Hydrolysis” value of the same molecule?
Answer: The value was “Not a cocaine hydrolase”.
